Reference: EP4800033A1, “HUMANIZED ANTI-CKAP4 ANTIBODY OR ANTIGEN-BINDING FRAGMENT THEREOF” (The University of Osaka, priority 2023, dated 2025)

T1: human CKAP4 extracellular region (465-602 amino acids) (human, UniProt Q07065 465-602)
T1 construct: also called extracellular region of CKAP4; extracellular domain of CKAP4
T1 sequence: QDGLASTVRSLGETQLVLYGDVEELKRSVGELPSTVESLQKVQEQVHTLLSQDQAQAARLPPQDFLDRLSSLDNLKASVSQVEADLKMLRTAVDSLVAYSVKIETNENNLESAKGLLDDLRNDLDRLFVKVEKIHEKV

T2: CKAP4 in lysates of mouse lung cancer cells Lewis Lung Carcinoma (LLC) (mouse, UniProt Q8BMK4 1-575)
T2 construct: also called mouse CKAP4; endogenous CKAP4 (mouse tissues)
T2 sequence (looked up): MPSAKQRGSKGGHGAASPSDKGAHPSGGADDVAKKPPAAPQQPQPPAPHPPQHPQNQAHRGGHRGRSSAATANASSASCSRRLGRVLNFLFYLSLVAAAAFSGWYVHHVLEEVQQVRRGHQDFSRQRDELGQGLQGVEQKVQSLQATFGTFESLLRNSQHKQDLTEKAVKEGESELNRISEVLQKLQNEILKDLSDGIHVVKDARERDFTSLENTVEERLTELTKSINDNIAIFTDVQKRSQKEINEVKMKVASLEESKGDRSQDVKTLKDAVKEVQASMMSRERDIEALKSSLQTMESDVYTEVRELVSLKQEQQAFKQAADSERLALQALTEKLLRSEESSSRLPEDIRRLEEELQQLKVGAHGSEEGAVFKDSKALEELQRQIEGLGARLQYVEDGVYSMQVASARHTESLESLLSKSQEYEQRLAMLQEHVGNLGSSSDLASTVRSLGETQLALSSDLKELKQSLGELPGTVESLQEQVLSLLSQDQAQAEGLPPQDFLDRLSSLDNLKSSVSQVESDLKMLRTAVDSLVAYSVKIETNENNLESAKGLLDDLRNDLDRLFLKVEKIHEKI


Tests used:
S2-CP8 cells = test: Combination therapy assay, S2-CP8 xenograft tumors; type: in vivo, mice; details: single agent
Protocol: Hv1Lt1 antibody or control IgG (280 µg/dose) was intraperitoneally administered twice a week. Gemcitabine (100 µg/dose, once weekly) or nab-PTX (10 mg/kg, twice weekly) was intraperitoneally administered. While lenvatinib (1 mg/kg) or a 0.5% (wt/vol) methylcellulose 400 solution was orally administered once a day, 6 days per week, tumor formation was continued for an additional 21 days, after which the mice were euthanized. The volume and weight of the excised tumors were measured.

HeLa S3 cells = test: Propidium iodide nuclear staining / apoptosis; type: cell-based, human
[1] = molecular target: T1, human CKAP4 extracellular region …; test: SPR (Biacore T200, 25 C), antibody captured on anti-human IgG CM5 chip, CKAP4 465-602 as analyte, 1:1 Langmuir fit
[2] = molecular target: T2, CKAP4 in lysates of mouse lung cancer …; test: blot of LLC cell lysate
[3] = molecular target: T1, human CKAP4 extracellular region …; test: SPR (Biacore T200, 25 C), antibody captured on anti-mouse IgG CM5 chip, CKAP4 465-602 as analyte, 1:1 Langmuir fit

Kd [1] [nM] | koff [1] [s⁻¹] | kon [1] [M⁻¹ s⁻¹] | Molecule | other results
 |  |  | Nc1ccn([C@@H]2O[C@H](CO)[C@@H](O)C2(F)F)c(=O)n1 [gemcitabine] | antitumor effects in vivo as single agents (S2-CP8 cells): antitumor effects
 |  |  | CN[C@@H]1C[C@H]2O[C@@](C)([C@@H]1OC)n1c3ccccc3c3c4c(c5c6ccccc6n2c5c31)C(=O)NC4 [staurosporine] | nuclear staining with propidium iodide (HeLa S3 cells): strongly stained
0.761 | 1.14e-05 | 15000 | Humanized anti-CKAP4 antibody Hv1Lt1 (antibody, human IgG1, V domains shown, also called HvlLtl; Humanized antibody Hv1Lt1) VH: QVQLVQSGAEVKKPGASVKVSCKASGFTFTSYWMHWVRQAPGQGLEWIGNINPSNGGTNYNAKFKSRVTMTRDTSTSTVYMELSSLRSEDTAVYYCARWVSFSYRGAMDYWGQGTLVTVSS VL: EIVLTQSPDFQSVTPKEKVTITCRASRAIRNNLHWYQQKPDQSPKLLIKYVSQSISGVPSRFSGSGSGTDFTLTINSLEAEDAATYYCQQSDSWPYTFGQGTKLEIK | 
0.0449 | 1.7e-06 | 37900 | Humanized anti-CKAP4 antibody Hv2Lt1 (antibody, human IgG1, V domains shown, also called Hv2Ltl; Humanized antibody Hv2Ltl) VH: QVQLVQSGAEVKKPGASVKVSCKASGYTFTSYWMHWVRQAPGQGLEWMGIINPSNGGTSYAQKFQGRVTMTRDTSTSTVYMELSSLRSEDTAVYYCARWVSFSYRGAMDYWGQGTLVTVSS VL: EIVLTQSPDFQSVTPKEKVTITCRASRAIRNNLHWYQQKPDQSPKLLIKYVSQSISGVPSRFSGSGSGTDFTLTINSLEAEDAATYYCQQSDSWPYTFGQGTKLEIK | binding result [2]: binds
 |  |  | Mouse anti-CKAP4 antibody 3F11-2B10 (antibody, V domains shown, Mouse monoclonal antibody; also called Mouse antibody 3F11-2B10; original mouse anti-CKAP4 antibody) VH: VQLQQQPGTELVKPGASVKLSCKASGFTFTSYWMHWVKQRPGQGLEWIGNINPSNGGTNYNAKFKSKATLTVDKSSSTAYMQLSSLTSEDSAVYYCARWVSFSYRGAMDYWGQGTSVTVSS VL: DIVLTQSPAILSVTPGDGVSLSCRASRAIRNNLHWFQQKSHESPRLLIKYVSQSISGIPSRFSGSGSGTDFTLSVDSVETEDFGVYFCQQSDSWPYTFGGGTKLEIK | Kd [3]: 14.5 nM; koff [3]: 0.0018 s⁻¹; kon [3]: 125000 M⁻¹ s⁻¹
